In the RNAGym collection of RNA variant scans (doi:10.1073/pnas.2313332121):

B1: TPR t1 (parent)
chain: GACCAAUCUGCCCUCAGAGCUCGAGAACAUCUUCGGAUGCAGAGGAGGCAGGCUUCGGUGGCGCGAUAGCGCCAACGUCCUCAACCUCCAAUGCAUCCCACCACAUGAUGAUGCCUGAAGAGCCUUGGUUUUUUG

Variants of: B1
Experiment: polymerase ribozyme fitness, log enrichment relative to wild type (log ratio); higher = more active; in vitro selection for triplet polymerase activity
Method in brief: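 One round of in vitro selection, in triplicate, was applied to PCR-built, transcribed mutant libraries of each subunit of a heterodimeric triplet polymerase ribozyme. The steps were annealing with a biotinylated primer, partner subunit and triplets, incubation frozen at −7 °C, gel excision of extended constructs, streptavidin-bead capture and RT-PCR. Fitness is the logarithm, base 2, of genotype enrichment over wild-type enrichment from inverse-variance-weighted replicate averages of Illumina-sequenced inputs and outputs, keeping genotypes with ≥10 input reads and ≥1 read per output.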

| Variant | polymerase ribozyme fitness (log ratio) |
| --- | --- |
| G23C A37G C40A G45A G57A C114A A118U | -7.04 |
| C22U A37U G57A C115A | -4.73 |
| C22G C72G U81A | -4.32 |
| A24C C73G A83U C114G | -6.1 |
| C22G G47U | -4.11 |
| G23A C49U C56A U116C | -6.08 |
| C22G U67A G93C A103G G110U | -5.12 |
| C22G C104A | -5.33 |
| A24G C31U G60C U96G U106A G120C | -4 |
| G23U C56U | -6.5 |
| C22U A121C | -3 |
| A24G G71U | -1.76 |
| A24U C123G | -3.41 |
| A24U C123U | -4.2 |
| G23C G110C | -7.42 |
| G23U G71C C94U C115U | -6.24 |
| A24G A90G | -1.65 |
| G23C C62A C99U U112C | -6.42 |
| A24G A46C A111C U130G | -3.43 |
| C22G G36A C101U | -5.03 |
| C22U G60C | -4.82 |
| C22G G52U G63C G93A | -4.47 |
| G23U C72U | -6.65 |
| G23U G120C | -3.8 |

| Variant | polymerase ribozyme fitness (log ratio) |
| --- | --- |
| A24C C86U G110A | -5.7 |
| C22U C86G A100C A121U G135U | -4.77 |
| C22U U55A | -3.49 |
| G23U C53U | -5.67 |
| C22U G113C | -6.59 |
| C22G G69A C124A | -3.93 |
| G23C G120A | -5.95 |
| A24G C49U G60U U129A | -3.61 |
| A24G C62U U81A | -3.04 |
| C22G G63C C80A | -5.79 |
| C22G U131A | -3.47 |
| C22U G63U C82U C124G U126A | -3.87 |
| G23U G117A | -6.33 |
| C22G U87G G113U A119G G127C | -4.58 |
| A24U G47A G52A G61A C101G C114G G122A | -7.25 |
| G23U C56U C70G A75U U78A C99A U112A | -6.9 |
| C22U G60A C123A | -4.89 |
| C22U A41U C53U C56U G61U G110U A121C | -7.42 |
| C22G A46C | -3.97 |
| C22U C82A A84C G93C U112C | -4.92 |
| C22U C76A | -3.53 |
| A24G C56U U125G | -2.02 |
| C22U C72A C79A | -5.61 |
| C22U C56U | -3.77 |

| Variant | polymerase ribozyme fitness (log ratio) |
| --- | --- |
| C22U U112A | -2.83 |
| C22G G42U A84U C115A C124G | -3.07 |
| G23U C73A | -6.12 |
| C22U A46U G69U G117A | -4.33 |
| C22U G45A C89U A121C C124G U125A | -5.69 |
| C22U A37U | -4.82 |
| A24G C64U U96G A111C | -3.27 |
| C22U C114G C124A U125G | -5.84 |
| A24G G71A G127U | -5.42 |
| C22U U38C U78C | -4.58 |
| C22G G60C C104A A121U | -2.34 |
| G23U C62A C99A G113U G127C | -5.56 |
| C22U U55G C123A | -4.35 |
| C22U A26U A27U A41C G71C C82G A111C A118U G127C | -6.27 |
| G23A G113C | -5.19 |
| C22G G57A C124U | -2.07 |
| G23C C28U C102G U112A C115A G120A | -8.12 |
| A24G C56A G60U A83C | -2.27 |
| G23A G69U A90U C124U | -5.33 |
| A24C C102U | -6.73 |
| C22U G52A C88U | -5.75 |
| A24G C73U C88U C101U | -2.26 |
| C22U A100C | -4.93 |
| C22U G61C | -4.87 |

| Variant | polymerase ribozyme fitness (log ratio) |
| --- | --- |
| A24G G60A | -1.82 |
| G23A C115U | -3.88 |
| C22G G23A C97U G120C | -3 |
| A24G G77U G113U G122U C124A | -6.49 |
| C22U G63U U78G U112A | -6.24 |
| A24U G47A G110A C114A | -6.75 |
| A24G G52A A91G | -3.17 |
| C22U C82A C101A | -4.64 |
| C22G A37U C104U U132A | -3.57 |
| A24G G120A | -0.603 |
| A24G G57A | -2.62 |
| A24G G71U U106A | -2.23 |
| C22U A75G | -3.55 |
| C22G G63U U92G G110A | -5.8 |
| C22U A41U C73G C99U | -6.26 |
| C22U U78C | -3.42 |
| A24G C73G G120A | -2.15 |
| C22U C86G A100C A121U | -4.27 |
| A24G C70A G110A A111U | -5.11 |
| A24G A119U C123G U125A | 0.361 |
| C22U G63U | -4.76 |
| C22U G63A | -4.36 |
| C22U G63C | -4.47 |
| C22U C53U | -4.37 |

| Variant | polymerase ribozyme fitness (log ratio) |
| --- | --- |
| A24G U59C U87A | -2.51 |
| G23A G63C C101U A111G | -6.12 |
| A24U A37G A108G G110U A121C | -6.34 |
| C22U U55G C72A U106A | -3.49 |
| C22G G52U C73U A95C | -5.41 |
| C22U G93C C114A | -6.86 |
| C22G A90C U92C G120C | -3.7 |
| G23A A43C A84G U87C G117U | -6.59 |
| G23A C56G A95U U112A G127C | -6.5 |
| C22U C123A | -3.4 |
| C22G C40A | -4.68 |
| A24U C72G A95C G110U | -7.4 |
| C22U | -3.85 |
| A24C A26G | -4.53 |
| C22U C73U U78A C89G U112A C124A | -6.98 |
| C22U U33A G36A G42A C72U U87A G113A | -6.59 |
| C22G C114A | -3.01 |
| C22G C114U | -3.43 |
| G23C C123U | -5.53 |
| C22G C53U C70A G120A G128U | -4.71 |
| C22U G93U | -5.26 |
| C22U G93A | -3.97 |
| A24U G122U | -5.4 |
| G23U A43U G60A | -7.42 |

| Variant | polymerase ribozyme fitness (log ratio) |
| --- | --- |
| C22G A50C G60U C115A | -2.18 |
| G23U C123A | -5.92 |
| A24C A91U G117U C123G | -7.92 |
| A24G A29U G47A A74G U87A U109G | -6.31 |
| C22G C86A | -3.83 |
| C22G C49A G127A U129G | -4.21 |
| C22U C40G G63A A74U A75U | -5.63 |
| G23A U112A | -4.45 |
| G25A A41U | -5.8 |
| G23A G60A | -4.52 |
| A24G A29U G45A G47C G77C U129A | -5.43 |
| C22U A83U | -4.1 |
| C22G G35C | -5.43 |
| C22G A50U C56U C76U C88G C124G | -5.33 |
| C22U G57U | -4.03 |
| C22U G44C C56U | -4.25 |
| C22U G77A | -4.04 |
| C22G C104A C123A | -3.01 |
| C22G C62G C104U G120A | -4.19 |
| C22U C40U G57U | -5.18 |
| C22G G52A G63U U81G G110A | -7.15 |
| A24G G71U C86G | -3.88 |
| C22G G61C C124U U133C | -2.74 |
| C22G U38A G61U C124U | -3.08 |

| Variant | polymerase ribozyme fitness (log ratio) |
| --- | --- |
| C22U C89A | -4.83 |
| C22U C89U | -3.61 |
| C22U A26U U54G A118U | -4.35 |
| C22G G39U | -3.5 |
| C22G A75U | -3.6 |
| C22U G63C C88A U130C | -5.23 |
| G23U U112G | -5.53 |
| C22G G61A C62U C104U G120A | -4.48 |
| A24G G42U U59G C88G | -5.92 |
| A24G G39A C70U A121G | -0.648 |
| C22G A83U C89G A121G | -3.33 |
| C22U C31G A50U C72G C82A A95G G107C | -5.28 |
| C22G G44U U109G G110C | -5.8 |
| C22G G52U A111C | -3.81 |
| C22G G23A G52C | -3.57 |
| A24G G47A G77U C86U | -2.29 |
| A24G G69A C82A A95C G120A | -4.87 |
| G23A C49A | -5.5 |
| C22G G36U | -4.91 |
| C22U C62U | -4.34 |
| A24G U78C | -1.32 |
| A24U U38G C114A U126G U132A | -6.67 |
| C22G C53U | -4.09 |
